The chains are these.
B1: yeast-displayed wild-type sBCMA (human BCMA extracellular domain, Met1-Ala54) [human] / human APRIL (a proliferation-inducing ligand) [human] (parent)
chain 1: MLQMAGQCSQNEYFDSLLHACIPCQLRCSSNTPPLTCQRYCNASVTNSVKGTNA
chain 2: AVLTQKQKKQHSVLHLVPINATSKDDSDVTEVMWQPALRRGRGLQAQGYGVRIQDAGVYLLYSQVLFQDVTFTMGQVVSREGQGRQETLFRCIRSMPSHPDRAYNSCYSAGVFHLHQGDILSVIIPRARAKLNLSPHGTFLGFVKL

Variants of B1 are the subject of one assay. The experiment in a line: flow cytometry binding of yeast-displayed sBCMA. Conditions: with human APRIL (a proliferation-inducing ligand) [human]; parent: 262.
For chain 1 S16G T36A, the screen value came out at 102.

For chain 1 S9P N11D S16G H19Y T36A N47S N53D, the screen value came to 1310.

As to chain 1 S16G H19Y T36A, the screen value was determined as 325.

The next assay covers variants of B1. The experiment in a line: flow cytometry binding curve of yeast-displayed sBCMA. Conditions: with human APRIL (a proliferation-inducing ligand) [human]. In general terms: A flow cytometer gives signals particle by particle.
Consider chain 1 S16G H19Y T36A N53D, for which the Kd (usually the free concentration of one partner at which half of the binding sites on the other are occupied at equilibrium, for simple one-to-one binding) worked out at 0.008 nM.

Consider chain 1 S16G H19Y T36A, for which the dissociation constant Kd was 0.018 nM and the screen value is 5860 A.U.

For the origin of these results see paper PMC9428257.
